From patent US20240200085A1 (AARHUS UNIVERSITET, published 2024)

Biological target: T1, GFP-tagged NFR5 (LjNFR5-sfGFP) (Lotus japonicus)
T1 construct: Full-length receptor with C-terminal sfGFP; In the co-IP it was expressed from pLjUbi in N. benthamiana leaves and extracted with detergent; In nodulation assays it was expressed from the native Nfr5 promoter in roots; also called NFR5-GFP
Assay: co-immunoprecipitation (RFP-Trap) from N. benthamiana leaf extracts, anti-GFP and anti-mCherry immunoblot (FIG. 1J)
Method: The assay was performed as in Arora et al. (The Plant Cell 34, 7, 2806 (2022)). In short, N. benthamiana leaves were crushed to a powder in liquid nitrogen using a mortar and pestle, then incubated for 1 hour at 4° C. on a rotor in buffer containing 50 mM Tris-HCl (pH 7.5), 150 mM NaCl, 10% (v/v) glycerol, 2 mM EDTA, 5 mM DTT, 1 mM phenylmethylsulfonyl fluoride, Protease Inhibitor Cocktail (Sigma-Aldrich), and 1% (v/v) IGEPAL® CA-630 (Alfa Aesar) in a ratio of 2 mL/g tissue. Extracts were centrifuged at 4° C. and 4700 rpm for 30 minutes. Supernatants were directly incubated with RFP-Trap® Magnetic Agarose beads (ChromoTek®) overnight at 4° C. The beads were washed five times in buffer containing 50 mM Tris-HCl (pH 7.5), 150 mM NaCl, 10% (v/v) glycerol, 2 mM EDTA, Protease Inhibitor Cocktail (Sigma-Aldrich), and 0.5% (v/v) IGEPAL® CA-630 (Alfa Aesar) on ice. To release the proteins, 50 μL of SDS sample buffer (25 mM Tris-HCl, pH 6.8, 10% glycerol, 2% SDS, 0.2% 2-mercaptoethanol, 0.6 mg/mL Bromophenol blue) was added and samples were heated for 5 minutes at 95° C.
Proteins were separated on 12% SDS-polyacrylamide gels at 120 V for 3 h. Blotting to PVDF membranes (Merck) was done by wet transfer for 2 hours at 90 V. Membranes were blocked with 5% milk for 1 hour. […] Chemiluminescence was detected on a G-BOX (Syngene) using ECL Prime Western Blotting Detection Reagent (Cytiva).

T1 sequence (chain, as listed by the source limits assumed): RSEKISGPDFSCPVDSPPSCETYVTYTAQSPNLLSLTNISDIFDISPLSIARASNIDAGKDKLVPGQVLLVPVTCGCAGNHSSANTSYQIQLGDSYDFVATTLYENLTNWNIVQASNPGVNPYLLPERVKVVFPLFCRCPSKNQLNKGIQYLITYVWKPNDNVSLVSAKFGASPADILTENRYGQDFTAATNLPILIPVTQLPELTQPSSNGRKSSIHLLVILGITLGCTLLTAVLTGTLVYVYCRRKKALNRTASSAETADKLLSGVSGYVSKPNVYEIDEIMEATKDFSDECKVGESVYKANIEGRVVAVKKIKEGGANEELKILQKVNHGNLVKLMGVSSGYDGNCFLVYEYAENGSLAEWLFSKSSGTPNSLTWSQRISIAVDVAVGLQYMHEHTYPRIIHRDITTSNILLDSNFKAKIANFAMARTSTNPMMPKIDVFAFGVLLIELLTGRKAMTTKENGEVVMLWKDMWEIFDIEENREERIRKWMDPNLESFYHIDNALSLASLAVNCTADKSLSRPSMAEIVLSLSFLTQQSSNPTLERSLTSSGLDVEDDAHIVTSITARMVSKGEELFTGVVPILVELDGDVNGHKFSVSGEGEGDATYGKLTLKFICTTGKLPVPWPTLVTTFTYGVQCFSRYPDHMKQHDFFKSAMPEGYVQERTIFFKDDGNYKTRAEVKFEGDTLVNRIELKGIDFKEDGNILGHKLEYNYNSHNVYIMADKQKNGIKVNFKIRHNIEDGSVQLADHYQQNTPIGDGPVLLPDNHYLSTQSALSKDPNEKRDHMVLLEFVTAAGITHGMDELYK

B1: VHHLaG16m-tagged mCherry (mCherry_20linker_mutNbsfGFP-HA) (VHH)
VHH: QVQLVESGGRLVQAGDSLRLSCAASGRTWSTSAMAWFRQAPGREREFVAAITWWVGNTILGDSVKGRFTISRDRAKNTVDLQMDNLEPEDTAVYYCSARSRWYVLSVLRSVDSYDYWGQGTQVTVSS
notes: Construct EC32015, expressed in N. benthamiana leaves; LaG16 was engineered to carry three bulky tryptophan residues in the paratope; also called mCherry mutNb; mutated LaG16; not shown: mCherry red fluorescent protein (engineered); 20-residue linker ('20linker'); HA tag
B1: no binding.
